Source: PMC6411836

Assays:
[1] = target: SLX1 endogenous in Xenopus egg extract (Xenopus laevis (endogenous in Xenopus egg extract)) (UniProt Q0IH86); assay: co-depletion by immunodepletion
[2] = target: SLX4 endogenous in Xenopus egg extract (Xenopus laevis (endogenous in Xenopus egg extract)); assay: co-depletion by immunodepletion

UniProt Q0IH86, sequence (Q0IH86 whole entry): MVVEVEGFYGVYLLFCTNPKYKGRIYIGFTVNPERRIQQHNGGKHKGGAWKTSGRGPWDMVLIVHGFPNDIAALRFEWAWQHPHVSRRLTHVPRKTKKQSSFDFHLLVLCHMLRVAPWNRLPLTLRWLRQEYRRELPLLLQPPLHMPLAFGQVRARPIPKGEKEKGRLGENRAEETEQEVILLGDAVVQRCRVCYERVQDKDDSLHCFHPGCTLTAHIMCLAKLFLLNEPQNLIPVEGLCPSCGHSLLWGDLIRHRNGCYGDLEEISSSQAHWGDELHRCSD

percent co-depleted [1]	percent co-depleted [2]	Substance
90%		SLX4 endogenous in Xenopus egg extract (natural protein)
50%	50%	XPF-ERCC1 endogenous in Xenopus egg extract (complex)
